Source: paper PMC11157265

What was measured:
PduA* A63R (C. freundii) = test: native gel or EMSA; PduA, A63R and A^GGSST alone on native gel run at pH 9.5; mobility tells tessellated from not tessellated; step: hexamer with hexamer (tessellation)
[1] = target: PduA* (Citrobacter freundii PduA with a C-terminal 23 residue extension) (C. freundii); test: native gel or EMSA; PduA and variants alone on native PAGE run at pH 8.5, 4 °C; low mobility = tessellated, high mobility = not tessellated; step: hexamer with hexamer (tessellation)
[2] = target: PduA* (Citrobacter freundii PduA with a C-terminal 23 residue extension) (C. freundii); test: native gel or EMSA; titration of tagless PduL into His-tagged PduA on a 6% acrylamide native gel, with anti-His Western blot to locate PduA
[3] = target: PduA* (Citrobacter freundii PduA with a C-terminal 23 residue extension) (C. freundii); test: native gel or EMSA; titration of PduL into PduA trimer of hexamers on a native gradient gel (higher resolution)

Q: With PduA* A63R (natural protein) as the molecule, how does the stoichiometry N (PduA* A63R (C. freundii)) read?
A: 3 hexamers

Q: For “PduA* (Citrobacter freundii PduA with a C-terminal 23 residue extension) (natural protein)”, which stoichiometry N [1] is on record?
A: 3 hexamers

B1: PduL (Citrobacter freundii), His-tag cleaved (enzyme)
chain: MDKQQLETTVTKVLDEMRERPIPLGISNRHIHLCAEDYDRLFPNHPISEKKELLQPGQYAADQTVTLVGPKGQLKNVRLLGPLRSTSQVEISRTDARTLGIAAPLRMSGSIEGTPGVRLISPFAELDLASGVIVAQRHIHMSPLDALILRVSHGDKVSVAINGDERRLIFDNVAVRVSPDMRLEMHIDTDEANAAGADNPQAFATLVSPR
Q: What does the source list for B1?
A: stoichiometry N (PduL dimer per PduA hexamer) [2]: 1; stoichiometry N (PduL dimers per PduA trimer of hexamers) [3]: 3
